Biological target: GST-Src (UniProt P12931 1-536)
Experiment: pull-down

- binding result: binds
B1: (His)6-tagged EB1 (natural protein, UniProt Q15691 1-268, looked up)
chain: MAVNVYSTSVTSDNLSRHDMLAWINESLQLNLTKIEQLCSGAAYCQFMDMLFPGSIALKKVKFQAKLEHEYIQNFKILQAGFKRMGVDKIIPVDKLVKGKFQDNFEFVQWFKKFFDANYDGKDYDPVAARQGQETAVAPSLVAPALNKPKKPLTSSSAAPQRPISTQRTAAAPKAGPGVVRKNPGVGNGDDEAAELMQQVNVLKLTVEDLEKERDFYFGKLRNIELICQENEGENDPVLQRIVDILYATDEGFVIPDEGGPQEEQEEY

Reference: publication PMC5039685 (Theranostics, 2016)
